Values quoted from earlier work as cited in PMC2930029.
Like-named read-outs stand apart in the source and are kept apart here.

Columns and labels:
C3b C3b (Homo sapiens) [1] = target: C3b C3b (Homo sapiens) (UniProt P01024); experiment: SPR
C3b C3b (Homo sapiens) [2] = target: C3b C3b (Homo sapiens) (UniProt P01024)

Chain of C3b C3b (Homo sapiens) (P01024 566-670): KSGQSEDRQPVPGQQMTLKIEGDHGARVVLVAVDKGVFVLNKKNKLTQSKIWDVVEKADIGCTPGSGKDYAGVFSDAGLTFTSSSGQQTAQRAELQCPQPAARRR
Chain of Factor H fH(1-4) (P08603 19-264): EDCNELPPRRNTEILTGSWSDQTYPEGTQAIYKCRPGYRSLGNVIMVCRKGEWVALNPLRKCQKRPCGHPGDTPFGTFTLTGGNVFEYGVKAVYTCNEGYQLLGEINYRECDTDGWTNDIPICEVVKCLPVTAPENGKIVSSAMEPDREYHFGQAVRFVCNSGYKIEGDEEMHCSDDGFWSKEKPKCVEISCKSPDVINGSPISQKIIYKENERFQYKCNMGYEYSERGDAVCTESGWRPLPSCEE
Chain of SCIN (A7X482 32-116): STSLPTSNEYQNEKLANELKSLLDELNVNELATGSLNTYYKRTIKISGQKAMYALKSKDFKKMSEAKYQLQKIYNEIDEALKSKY
Chain of Efb (P68799 30-165): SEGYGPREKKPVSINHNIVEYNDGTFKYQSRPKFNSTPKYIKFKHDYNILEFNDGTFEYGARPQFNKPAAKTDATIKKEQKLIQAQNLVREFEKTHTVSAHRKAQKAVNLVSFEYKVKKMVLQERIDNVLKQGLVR

| Substance | Kd (C3b C3b (Homo sapiens) [1]) [nM] | Kd (C3b C3b (Homo sapiens) [2]) [nM] |
| --- | --- | --- |
| SCIN (from UniProt A7X482) | 180 | – |
| Factor H fH(1-4) (from UniProt P08603) | – | 11000 |
| Efb (from UniProt P68799) | 10 | – |
